Assay results published in patent US20180194862A1 (AbbVie / Abbott, published 2018).
Like-named read-outs stand apart in the source and are kept apart here. Blank lines part the entries; values can stand above or below the binder they belong to.

How the values were obtained:
[1] = biological target: T1, MSLN (binding assays of Example 4, Table 4-2) (Homo sapiens (Human), UniProt Q13421 296-598); assay: antigen binding, format not stated
T1 construct: also called mesothelin

[2] = biological target: CD40 (binding assays of Example 4, Table 4-2); assay: antigen binding, format not stated
CD40 (binding assays of Example 4, Table 4-2), sequence (P25942 21-277): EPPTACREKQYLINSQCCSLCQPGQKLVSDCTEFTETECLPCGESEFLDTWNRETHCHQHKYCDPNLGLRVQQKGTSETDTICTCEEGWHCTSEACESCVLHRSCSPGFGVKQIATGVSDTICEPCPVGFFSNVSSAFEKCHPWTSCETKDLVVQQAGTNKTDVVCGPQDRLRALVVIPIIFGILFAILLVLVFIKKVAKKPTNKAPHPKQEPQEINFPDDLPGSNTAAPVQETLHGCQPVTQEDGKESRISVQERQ

[3] = biological target: T2, soluble form of the extracellular domain of cynomolgus (cyno) CD40 (Creative BioMart) (cynomolgus, UniProt G7PG38 21-193); assay: SPR
T2 construct: extracellular domain; also called Cynomolgus CD40

human mesothelin [4] = biological target: T3, human mesothelin (human, UniProt Q13421 296-580, limits assumed); assay: SPR
T3 construct: also called Human MSLN

cynomolgus mesothelin [5] = biological target: T4, cynomolgus mesothelin (cynomolgus); assay: SPR
T4 construct: also called cynoMSLN; Cyno MSLN

[6] = biological target: T5, soluble form of the extracellular domain of human CD40 (Creative BioMart) (human, UniProt P25942 21-193); assay: SPR
T5 construct: Bought
T5 sequence (P25942 21-193 limits assumed): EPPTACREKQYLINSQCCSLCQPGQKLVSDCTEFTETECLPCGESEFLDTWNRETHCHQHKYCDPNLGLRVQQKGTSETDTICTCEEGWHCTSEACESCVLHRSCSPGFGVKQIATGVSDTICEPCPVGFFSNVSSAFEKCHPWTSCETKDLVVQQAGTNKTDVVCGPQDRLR

[7] = biological target: T2, soluble form of the extracellular …; assay: SPR, fast kinetics
cynomolgus mesothelin [8] = biological target: T4, cynomolgus mesothelin; assay: SPR; remark: listed apart in the source
human mesothelin [9] = biological target: T3, human mesothelin; assay: SPR; remark: listed apart in the source
[10] = biological target: T5, soluble form of the extracellular …; assay: SPR; remark: listed apart in the source
[11] = biological target: T6, human CD40 on cells (HEK293 stable transfectants, HEK-Blue CD40 cells, human B cells, monocytic cells, … (human, UniProt P25942 21-277)); assay: cell-based or functional assay
T6 sequence (P25942 21-277 limits assumed): as the sequence (P25942 21-277) above

[12] = biological target: T2, soluble form of the extracellular …; assay: SPR; remark: listed apart in the source
mouse CD40 [13] = biological target: T7, mouse CD40 (mouse, UniProt P27512 20-193, limits assumed); assay: CD40 binding, format not stated
T7 construct: also called murine CD40
T7 sequence (looked up): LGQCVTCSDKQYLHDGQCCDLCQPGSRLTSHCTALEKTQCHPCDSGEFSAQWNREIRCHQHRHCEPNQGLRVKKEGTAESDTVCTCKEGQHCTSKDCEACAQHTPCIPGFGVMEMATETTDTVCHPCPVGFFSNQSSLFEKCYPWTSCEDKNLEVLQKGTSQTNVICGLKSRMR

[14] = biological target: T6, human CD40 on cells (HEK293 stable …); assay: cell-based or functional assay; remark: listed apart in the source
[15] = biological target: T2, soluble form of the extracellular …; assay: SPR, Ab captured
Description: (§1) CD40 binding kinetics was analyzed by surface plasmon resonance assay with a Biacore T200 instrument (Table 1-5). Briefly, a goat anti-mouse Fc antibody (Pierce) or goat anti-human Fc (Pierce) was immobilized on a CM5 sensor chip, followed by capture of the anti-CD40 antibodies on the test surface. Subsequently, the soluble form of the extracellular domain of human CD40 (Creative BioMart) or cynomolgus (cyno) CD40 (Creative BioMart) was injected, and the binding and dissociation were measured.

[16] = biological target: T5, soluble form of the extracellular …; assay: SPR, Ab captured
Description: as §1

dog CD40 = biological target: T8, dog CD40 (dog, UniProt Q7YRL5 21-194, limits assumed); assay: FACS
T8 sequence (looked up): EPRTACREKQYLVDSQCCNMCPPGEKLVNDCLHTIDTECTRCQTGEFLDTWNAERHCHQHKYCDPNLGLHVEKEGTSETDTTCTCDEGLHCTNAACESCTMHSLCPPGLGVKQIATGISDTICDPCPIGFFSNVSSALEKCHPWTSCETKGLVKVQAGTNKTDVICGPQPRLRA

mouse CD40 [17] = biological target: T7, mouse CD40; assay: FACS
[18] = biological target: T6, human CD40 on cells (HEK293 stable …); assay: cell-based or functional assay; remark: listed apart in the source
[19] = biological target: T6, human CD40 on cells (HEK293 stable …); assay: CD40 occupancy on B cells, -MSLN (n = 3)
[20] = biological target: T9, mesothelin on cells (endogenous on SN12C, OVCAR3, SW1990); HEK293 cells expressing cell-surface human … (human, UniProt Q13421 296-598); assay: FACS, OVCAR3 (CA125+)
T9 construct: whole, on cells; also called cell-surface MSLN
T9 sequence (Q13421 other isoform, or with tags, fused parts or gaps limits assumed): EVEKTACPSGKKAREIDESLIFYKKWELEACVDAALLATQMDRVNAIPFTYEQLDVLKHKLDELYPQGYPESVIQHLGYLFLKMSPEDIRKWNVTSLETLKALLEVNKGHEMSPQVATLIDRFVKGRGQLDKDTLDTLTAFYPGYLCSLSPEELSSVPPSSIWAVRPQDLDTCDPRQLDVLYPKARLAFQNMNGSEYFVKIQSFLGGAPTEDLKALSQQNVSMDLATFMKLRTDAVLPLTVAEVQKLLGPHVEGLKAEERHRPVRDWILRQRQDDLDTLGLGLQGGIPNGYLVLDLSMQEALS
Description: (§2) The binding of anti-mesothelin affinity matured variants was measured by FACS on the ovarian cancer cell line OVCAR3, the pancreatic cancer cell line SW1990, and the renal cancer cell line SN12C. Both OVCAR3 and SW1990 express CA125, but CA125 expression on SN12C cells was not detected.

[21] = biological target: T9, mesothelin on cells (endogenous on …); assay: FACS, SN12C (CA125-)
Description: as §2

human mesothelin [22] = biological target: T3, human mesothelin; assay: SPR; remark: listed apart in the source
cynomolgus mesothelin [23] = biological target: T4, cynomolgus mesothelin; assay: SPR; remark: listed apart in the source

T1 sequence (Q13421 other isoform, or with tags, fused parts or gaps limits assumed, form in doubt): as the sequence (Q13421 other isoform, or with tags, fused parts or gaps limits assumed) above

EC50 [1]: 7.4 µg/mL
EC50 [2]: 0.5 µg/mL
B1: B39 (bispecific antibody, IgG2)
chain: EVQLQESGPGLVKPSETLSLTCTVSGYSITSNYYWNWIRQPPGKGLEWMGYIRYDGSNNYNPSLKNRVTISRDTSKNQFSLKLSSVTAADTAVYYCARLDYWGQGTTVTVSSDLSGGGGSGGGGSGGGGSGGGGSTGDAVMTQTPLSLSVTPGQPASISCRSSQSLENTNGNTFLNWYLQKPGQSPQLLIYRVSNRFSGVPDRFSGSGSGTDFTLKISRVEAEDVGVYYCLQVTHVPFTFGQGTKLEIKRVERKSSVECPPCPAPPVAGPSVFLFPPKPKDTLMISRTPEVTCVVVDVSHEDPEVQFNWYVDGVEVHNAKTKPREEQFNSTFRVVSVLTVVHQDWLNGKEYKCKVSNKGLPAPIEKTISKTKGQPREPQVYTLPPSREEMTKNQVSLTCLVKGFYPSDIAVEWESNGQPENNYKTTPPMLDSDGSFFLYSKLTVDKSRWQQGNVFSCSVMHEALHNHYTQKSLSLSPGKVDGASSPVNVSSPSVQDIEVQLVQSGAEVKKPGASVKVSCKASGDTFKRYYVHWVRQAPGQGLEWMGIINPSGVSTTYAQKFQGRVTMTRDTSTSTVYMELSSLRSEDTAVYYCAEVRGSGFNYFGMDVWGQGTLVTVSSDLSGGGGSGGGGSGGGGSGGGGSTGSYELTQPPSVSVSPGQTASITCSGDKLGDKYASWYQQKPGQSPVLVIYQDNRRPSGIPERFSGSNSGNTATLTISGTQAMDEADYYCQAWDSDTYVFGTGTKVTVLGQ
notes: scFv-Fc-scFv, huIgG2

Kd [3]: < 150 nM
Kd (human mesothelin [4]): < 400 nM
Kd (cynomolgus mesothelin [5]): ≤ 0.29 nM
Kd [6]: < 400 nM
Kd [7]: 150 nM
Kd (cynomolgus mesothelin [8]): 0.23 nM
koff (cynomolgus mesothelin [8]): 7.1e-05 s⁻¹
kon (cynomolgus mesothelin [8]): 310000 M⁻¹ s⁻¹
Kd (human mesothelin [9]): 0.47 nM
koff (human mesothelin [9]): 2.4e-05 s⁻¹
kon (human mesothelin [9]): 52000 M⁻¹ s⁻¹
Kd [10]: 390 nM
koff [10]: 0.26 s⁻¹
kon [10]: 680000 M⁻¹ s⁻¹
Max. IL-12p70, dendritic cells with cell-surface mesothelin [11]: 100 pg/mL
B2: CF1 (bispecific antibody, human IgG1, lambda)
heavy: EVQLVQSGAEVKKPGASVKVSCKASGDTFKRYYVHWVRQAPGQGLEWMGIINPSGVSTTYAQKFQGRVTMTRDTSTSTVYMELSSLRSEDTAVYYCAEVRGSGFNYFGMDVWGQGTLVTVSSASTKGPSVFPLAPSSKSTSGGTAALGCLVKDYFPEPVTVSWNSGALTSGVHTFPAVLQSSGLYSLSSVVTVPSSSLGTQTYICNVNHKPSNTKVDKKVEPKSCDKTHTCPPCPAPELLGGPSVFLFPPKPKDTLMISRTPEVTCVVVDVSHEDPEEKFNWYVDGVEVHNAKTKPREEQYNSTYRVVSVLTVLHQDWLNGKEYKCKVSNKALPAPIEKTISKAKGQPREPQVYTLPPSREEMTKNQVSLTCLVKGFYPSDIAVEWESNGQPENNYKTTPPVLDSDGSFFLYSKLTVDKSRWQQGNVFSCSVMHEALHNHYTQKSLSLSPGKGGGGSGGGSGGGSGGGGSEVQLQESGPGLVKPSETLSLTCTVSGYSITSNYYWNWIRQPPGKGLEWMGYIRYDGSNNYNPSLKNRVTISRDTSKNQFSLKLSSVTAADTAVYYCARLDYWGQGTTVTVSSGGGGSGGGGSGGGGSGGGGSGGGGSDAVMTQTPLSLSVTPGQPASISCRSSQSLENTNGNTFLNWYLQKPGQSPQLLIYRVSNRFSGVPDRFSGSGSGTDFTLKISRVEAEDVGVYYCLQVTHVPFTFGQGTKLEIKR
light: SYELTQPPSVSVSPGQTASITCSGDKLGDKYASWYQQKPGQSPVLVIYQDNRRPSGIPERFSGSNSGNTATLTISGTQAMDEADYYCQAWDSDTYVFGTGTKVTVLGQPKAAPSVTLFPPSSEELQANKATLVCLISDFYPGAVTVAWKADSSPVKAGVETTTPSKQSNNKYAASSYLSLTPEQWKSHRSYSCQVTHEGSTVEKTVAPTECS
notes: IgG-scFv: HuAM15 Fab, IgG1 V273E, CD40 scFv

Kd [3]: < 150 nM
Kd (human mesothelin [4]): < 400 nM
Kd (cynomolgus mesothelin [5]): ≤ 0.29 nM
Kd [6]: < 400 nM
Kd [12]: 8.3 nM
koff [12]: 0.011 s⁻¹
kon [12]: 1.3e+06 M⁻¹ s⁻¹
Kd (cynomolgus mesothelin [8]): 0.29 nM
koff (cynomolgus mesothelin [8]): 8.2e-05 s⁻¹
kon (cynomolgus mesothelin [8]): 280000 M⁻¹ s⁻¹
Kd (human mesothelin [9]): 0.59 nM
koff (human mesothelin [9]): 3.1e-05 s⁻¹
kon (human mesothelin [9]): 52000 M⁻¹ s⁻¹
Kd [10]: 14 nM
koff [10]: 0.0096 s⁻¹
kon [10]: 690000 M⁻¹ s⁻¹
Max. IL-12p70, dendritic cells with cell-surface mesothelin [11]: 75 pg/mL
B3: CF3 (bispecific antibody, human IgG1, lambda)
heavy: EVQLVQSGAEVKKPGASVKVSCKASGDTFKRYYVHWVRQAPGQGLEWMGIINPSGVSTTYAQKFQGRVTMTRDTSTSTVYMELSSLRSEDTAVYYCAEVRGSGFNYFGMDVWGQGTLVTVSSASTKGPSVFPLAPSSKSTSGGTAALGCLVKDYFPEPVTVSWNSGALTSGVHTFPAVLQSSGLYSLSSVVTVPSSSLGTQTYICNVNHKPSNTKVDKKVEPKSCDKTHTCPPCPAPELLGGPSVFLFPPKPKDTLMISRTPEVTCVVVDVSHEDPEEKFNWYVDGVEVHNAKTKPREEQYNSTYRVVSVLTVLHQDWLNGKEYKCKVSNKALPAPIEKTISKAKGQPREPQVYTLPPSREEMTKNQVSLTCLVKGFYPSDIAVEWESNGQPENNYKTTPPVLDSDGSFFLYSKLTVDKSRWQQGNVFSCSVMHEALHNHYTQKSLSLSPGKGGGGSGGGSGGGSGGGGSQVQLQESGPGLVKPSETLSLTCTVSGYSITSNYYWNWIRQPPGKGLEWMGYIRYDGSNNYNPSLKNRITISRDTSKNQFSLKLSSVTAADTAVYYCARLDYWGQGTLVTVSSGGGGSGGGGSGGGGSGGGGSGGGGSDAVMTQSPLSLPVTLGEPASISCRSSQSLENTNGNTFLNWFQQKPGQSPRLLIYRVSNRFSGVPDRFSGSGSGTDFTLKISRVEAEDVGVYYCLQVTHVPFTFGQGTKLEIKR
light: SYELTQPPSVSVSPGQTASITCSGDKLGDKYASWYQQKPGQSPVLVIYQDNRRPSGIPERFSGSNSGNTATLTISGTQAMDEADYYCQAWDSDTYVFGTGTKVTVLGQPKAAPSVTLFPPSSEELQANKATLVCLISDFYPGAVTVAWKADSSPVKAGVETTTPSKQSNNKYAASSYLSLTPEQWKSHRSYSCQVTHEGSTVEKTVAPTECS
notes: IgG-scFv

EC50 (mouse CD40 [13]): 0.21 µg/mL
B4: anti-CD40 antibody (1C10 mIgG1) (antibody, V domains shown)
VH: EVQLVESGGGLVQPGRSLKLSCAASGFTFSNYDMAWVRQAPTKGLEWVASISPSGGRTYYRDSVKGRFTVSRDNAKSTLYLQMDSLRSEDTATYYCARHDGSYFDYWGQGVMVTVSS
VL: DTVLTQSPALAVSPGERVTISCRASESVSTLMHWYQQKPGQQPKLLIYLASHLESGVPARFSGSGSGTDFTLTIDPVEADDTATYYCQESWNDPWTFGGGTKLELK
notes: murine IgG1

NF-κB activation EC50, HEK293 CD40 NFκB reporter cells [14]: 0.14 µg/mL
EC50 [2]: 0.4 µg/mL
Kd [15]: 7.1 nM
koff [15]: 0.0071 s⁻¹
kon [15]: 1e+06 M⁻¹ s⁻¹
Kd [16]: 3 nM
koff [16]: 0.0023 s⁻¹
kon [16]: 770000 M⁻¹ s⁻¹
binding result (dog CD40): no binding
binding result (mouse CD40 [17]): no binding
B5: huAb8-1 (antibody, human IgG1, V domains shown)
VH: EVQLVQSGAEVKKPGSSVKVSCKASGYTFTDYYINWVRQAPGQGLEWIGWIFPGSGSVYCNEQFKGRATLTVDRSTSTAYMELSSLRSEDTAVYFCASSLGKFAYWGQGTLVTVSS
VL: DIQMTQSPSSLSASVGDRVTITCKASQSVVTAVAWYQQKPGKSPKLLIYSASNRYTGVPSRFSGSGSGTDFTLTISSLQPEDFATYFCQQYSSYPYTFGGGTKVEIK
notes: human IgG1, kappa

B-cell CD23 EC50, +MSLN [18]: 2.5 nM
B-cell CD23 EC50, -MSLN [18]: 1.4 nM
B-cell CD86 EC50, +MSLN [18]: 0.7 nM
B-cell CD86 EC50, -MSLN [18]: 0.35 nM
B-cell proliferation EC50, +MSLN [18]: 12 nM
B-cell proliferation EC50, -MSLN [18]: 4.5 nM
moDC CD83 EC50, +MSLN [18]: 6.9 nM
moDC CD83 EC50, -MSLN [18]: 2 nM
moDC IL-12p70 EC50, +MSLN [18]: 3.4 nM
moDC IL-12p70 EC50, -MSLN [18]: 12.4 nM
EC50 [19]: 4.1 nM
B6: huAb9 A2I (antibody, human IgG1, kappa)
heavy: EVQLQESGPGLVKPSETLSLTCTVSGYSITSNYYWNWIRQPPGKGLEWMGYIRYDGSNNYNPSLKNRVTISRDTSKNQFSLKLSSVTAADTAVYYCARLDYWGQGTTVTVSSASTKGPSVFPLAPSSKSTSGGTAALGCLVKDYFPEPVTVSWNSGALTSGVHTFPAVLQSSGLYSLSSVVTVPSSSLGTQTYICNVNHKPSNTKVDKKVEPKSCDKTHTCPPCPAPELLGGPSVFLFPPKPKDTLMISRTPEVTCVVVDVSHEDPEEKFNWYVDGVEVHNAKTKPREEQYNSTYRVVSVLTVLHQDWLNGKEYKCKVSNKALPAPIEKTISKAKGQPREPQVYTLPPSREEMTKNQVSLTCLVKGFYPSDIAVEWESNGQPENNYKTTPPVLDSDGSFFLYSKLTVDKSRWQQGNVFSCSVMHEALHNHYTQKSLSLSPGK
light: DIVMTQTPLSLSVTPGQPASISCRSSQSLENTNGNTFLNWYLQKPGQSPQLLIYRVSNRFSGVPDRFSGSGSGTDFTLKISRVEAEDVGVYYCLQVTHVPFTFGQGTKLEIKRTVAAPSVFIFPPSDEQLKSGTASVVCLLNNFYPREAKVQWKVDNALQSGNSQESVTEQDSKDSTYSLSSTLTLSKADYEKHKVYACEVTHQGLSSPVTKSFNRGEC
notes: human IgG1 V273E

NF-κB activation EC50, HEK293 CD40 NFκB reporter cells [14]: 1.13 µg/mL
EC50 [2]: 0.2 µg/mL
Kd [15]: 13 nM
koff [15]: 0.024 s⁻¹
kon [15]: 1.8e+06 M⁻¹ s⁻¹
Kd [16]: 15 nM
koff [16]: 0.026 s⁻¹
kon [16]: 1.7e+06 M⁻¹ s⁻¹
binding result (dog CD40): no binding
binding result (mouse CD40 [17]): no binding
B7: huAb9-5 (antibody, human IgG1, kappa)
heavy: not shown
light: DAVMTQTPLSLSVTPGQPASISCRSSQSLENTNGNTFLNWYLQKPGQSPQLLIYRVSNRFSGVPDRFSGSGSGTDFTLKISRVEAEDVGVYYCLQVTHVPFTFGQGTKLEIKRTVAAPSVFIFPPSDEQLKSGTASVVCLLNNFYPREAKVQWKVDNALQSGNSQESVTEQDSKDSTYSLSSTLTLSKADYEKHKVYACEVTHQGLSSPVTKSFNRGEC
notes: human IgG1, kappa

EC50 [20]: 0.7 µg/mL
Maximum binding (MFI) [20]: 3550 MFI
EC50 [21]: 0.07 µg/mL
Maximum binding (MFI) [21]: 9390 MFI
EC50 [1]: 0.9 µg/mL
Kd (human mesothelin [22]): 0.31 nM
koff (human mesothelin [22]): 1.3e-05 s⁻¹
kon (human mesothelin [22]): 44000 M⁻¹ s⁻¹
Kd (cynomolgus mesothelin [23]): 4.5 nM
koff (cynomolgus mesothelin [23]): 0.00018 s⁻¹
kon (cynomolgus mesothelin [23]): 40000 M⁻¹ s⁻¹
B8: HuAM15 (antibody, V domains shown)
VH: EVQLVQSGAEVKKPGASVKVSCKASGDTFKRYYVHWVRQAPGQGLEWMGIINPSGVSTTYAQKFQGRVTMTRDTSTSTVYMELSSLRSEDTAVYYCAEVRGSGFNYFGMDVWGQGTLVTVSS
VL: SYELTQPPSVSVSPGQTASITCSGDKLGDKYASWYQQKPGQSPVLVIYQDNRRPSGIPERFSGSNSGNTATLTISGTQAMDEADYYCQAWDSDTYVFGTGTKVTVL
notes: fully human antibody
